Data set [1] has as its target E72Q-mVDAC1, purified recombinant.
Data set [2] deals with T1, VDAC of isolated rat mitochondria (liver, brain), Q9Z2L0.
T1 chain: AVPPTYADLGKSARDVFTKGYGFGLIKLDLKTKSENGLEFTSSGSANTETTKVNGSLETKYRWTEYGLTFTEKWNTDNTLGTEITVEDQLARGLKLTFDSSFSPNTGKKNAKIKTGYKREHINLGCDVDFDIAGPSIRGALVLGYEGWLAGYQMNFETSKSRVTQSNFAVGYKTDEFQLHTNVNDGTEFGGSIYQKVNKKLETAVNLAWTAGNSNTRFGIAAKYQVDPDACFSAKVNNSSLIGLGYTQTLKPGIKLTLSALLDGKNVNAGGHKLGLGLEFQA

The target of data set [3] is T2, native mVDAC1 (mouse VDAC1), purified recombinant.
T2 chain: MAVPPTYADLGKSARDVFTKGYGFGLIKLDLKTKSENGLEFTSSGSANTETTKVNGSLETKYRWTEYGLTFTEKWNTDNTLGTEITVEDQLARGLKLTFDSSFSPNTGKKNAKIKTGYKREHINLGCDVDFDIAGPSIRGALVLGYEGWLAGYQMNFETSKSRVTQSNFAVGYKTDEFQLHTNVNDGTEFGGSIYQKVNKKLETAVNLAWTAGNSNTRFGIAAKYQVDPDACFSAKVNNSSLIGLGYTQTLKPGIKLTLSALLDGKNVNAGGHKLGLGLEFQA

B1: Rat brain HK-I (hexokinase-I), purified (protein)
chain: MIAAQLLAYYFTELKDDQVKKIDKYLYAMRLSDEILIDILTRFKKEMKNGLSRDYNPTASVKMLPTFVRSIPDGSEKGDFIALDLGGSSFRILRVQVNHEKNQNVSMESEIYDTPENIVHGSGTQLFDHVADCLGDFMEKKKIKDKKLPVGFTFSFPCRQSKIDEAVLITWTKRFKASGVEGADVVKLLNKAIKKRGDYDANIVAVVNDTVGTMMTCGYDDQQCEVGLIIGTGTNACYMEELRHIDLVEGDEGRMCINTEWGAFGDDGSLEDIRTEFDRELDRGSLNPGKQLFEKMVSGMYMGELVRLILVKMAKEGLLFEGRITPELLTRGKFNTSDVSAIEKDKEGIQNAKEILTRLGVEPSDVDCVSVQHICTIVSFRSANLVAATLGAILNRLRDNKGTPRLRTTVGVDGSLYKMHPQYSRRFHKTLRRLVPDSDVRFLLSESGTGKGAAMVTAVAYRLAEQHRQIEETLAHFRLSKQTLMEVKKRLRTEMEMGLRKETNSKATVKMLPSFVRSIPDGTEHGDFLALDLGGTNFRVLLVKIRSGKKRTVEMHNKIYSIPLEIMQGTGDELFDHIVSCISDFLDYMGIKGPRMPLGFTFSFPCHQTNLDCGILISWTKGFKATDCEGHDVASLLRDAVKRREEFDLDVVAVVNDTVGTMMTCAYEEPTCEIGLIVGTGTNACYMEEMKNVEMVEGNQGQMCINMEWGAFGDNGCLDDIRTDFDKVVDEYSLNSGKQRFEKMISGMYLGEIVRNILIDFTKKGFLFRGQISEPLKTRGIFETKFLSQIESDRLALLQVRAILQQLGLNSTCDDSILVKTVCGVVSKRAAQLCGAGMAAVVEKIRENRGLDHLNVTVGVDGTLYKLHPHFSRIMHQTVKELSPKCTVSFLLSEDGSGKGAALITAVGVRLRGDPSIA
In the case of B1, the “VDAC1 channel closure in a planar lipid bilayer (currents before and 5 min after HK-I, 28.6 mU/ml)” value in data set [1] is reported as “HK-I is able to close native VDAC1 but not mutated E72Q-VDAC1 (SEQ ID NO:43)”; in data set [3], “HK-I is able to close native VDAC1”. Besides, the “PTP opening (Ca2+ accumulation and swelling of energized mitochondria)” value in data set [2] is on record as “HK-I inhibited PTP opening”. For the same protein, the “release of cytochrome c from mitochondria (Western blot)” value in data set [2] was “HK-I prevented the release of cytochrome c from mitochondria”.

B2: trypsin-treated HK-I (protein)
chain: B1 chain
B2: the “PTP opening (swelling of energized mitochondria)” value in data set [2] was “The failure of non-binding species of HK, such as yeast HK, or trypsin- or chymotrypsin-treated HK-I (FIG. 2D) to prevent PTP opening”.

B3: chymotrypsin-treated HK-I (protein)
chain: FTELKDDQVKKIDKYLYAMRLSDEILIDILTRFKKEMKNGLSRDYNPTASVKMLPTFVRSIPDGSEKGDFIALDLGGSSFRILRVQVNHEKNQNVSMESEIYDTPENIVHGSGTQLFDHVADCLGDFMEKKKIKDKKLPVGFTFSFPCRQSKIDEAVLITWTKRFKASGVEGADVVKLLNKAIKKRGDYDANIVAVVNDTVGTMMTCGYDDQQCEVGLIIGTGTNACYMEELRHIDLVEGDEGRMCINTEWGAFGDDGSLEDIRTEFDRELDRGSLNPGKQLFEKMVSGMYMGELVRLILVKMAKEGLLFEGRITPELLTRGKFNTSDVSAIEKDKEGIQNAKEILTRLGVEPSDVDCVSVQHICTIVSFRSANLVAATLGAILNRLRDNKGTPRLRTTVGVDGSLYKMHPQYSRRFHKTLRRLVPDSDVRFLLSESGTGKGAAMVTAVAYRLAEQHRQIEETLAHFRLSKQTLMEVKKRLRTEMEMGLRKETNSKATVKMLPSFVRSIPDGTEHGDFLALDLGGTNFRVLLVKIRSGKKRTVEMHNKIYSIPLEIMQGTGDELFDHIVSCISDFLDYMGIKGPRMPLGFTFSFPCHQTNLDCGILISWTKGFKATDCEGHDVASLLRDAVKRREEFDLDVVAVVNDTVGTMMTCAYEEPTCEIGLIVGTGTNACYMEEMKNVEMVEGNQGQMCINMEWGAFGDNGCLDDIRTDFDKVVDEYSLNSGKQRFEKMISGMYLGEIVRNILIDFTKKGFLFRGQISEPLKTRGIFETKFLSQIESDRLALLQVRAILQQLGLNSTCDDSILVKTVCGVVSKRAAQLCGAGMAAVVEKIRENRGLDHLNVTVGVDGTLYKLHPHFSRIMHQTVKELSPKCTVSFLLSEDGSGKGAALITAVGVRLRGDPSIA
B3: in data set [2], the “PTP opening (swelling of energized mitochondria)” value was “The failure of non-binding species of HK, such as yeast HK, or trypsin- or chymotrypsin-treated HK-I (FIG. 2D) to prevent PTP opening”.

Source of the values: US20120214741.
